Test results from patent US20250332277A1, “PROTEIN TYROSINE KINASE 7 ANTIBODIES AND ANTIBODY-DRUG CONJUGATES” (Eli Lilly and Company, priority 2024, published 2025).

Molecular target: human PTK-7 on cells (OV90-PTK-7, NCI-H446, OVCAR-3) (human) (UniProt Q13308)
Test: cell-based or functional assay

Sequence of human PTK-7 on cells (OV90-PTK-7, NCI-H446, OVCAR-3) (human) (Q13308 31-1070 limits assumed): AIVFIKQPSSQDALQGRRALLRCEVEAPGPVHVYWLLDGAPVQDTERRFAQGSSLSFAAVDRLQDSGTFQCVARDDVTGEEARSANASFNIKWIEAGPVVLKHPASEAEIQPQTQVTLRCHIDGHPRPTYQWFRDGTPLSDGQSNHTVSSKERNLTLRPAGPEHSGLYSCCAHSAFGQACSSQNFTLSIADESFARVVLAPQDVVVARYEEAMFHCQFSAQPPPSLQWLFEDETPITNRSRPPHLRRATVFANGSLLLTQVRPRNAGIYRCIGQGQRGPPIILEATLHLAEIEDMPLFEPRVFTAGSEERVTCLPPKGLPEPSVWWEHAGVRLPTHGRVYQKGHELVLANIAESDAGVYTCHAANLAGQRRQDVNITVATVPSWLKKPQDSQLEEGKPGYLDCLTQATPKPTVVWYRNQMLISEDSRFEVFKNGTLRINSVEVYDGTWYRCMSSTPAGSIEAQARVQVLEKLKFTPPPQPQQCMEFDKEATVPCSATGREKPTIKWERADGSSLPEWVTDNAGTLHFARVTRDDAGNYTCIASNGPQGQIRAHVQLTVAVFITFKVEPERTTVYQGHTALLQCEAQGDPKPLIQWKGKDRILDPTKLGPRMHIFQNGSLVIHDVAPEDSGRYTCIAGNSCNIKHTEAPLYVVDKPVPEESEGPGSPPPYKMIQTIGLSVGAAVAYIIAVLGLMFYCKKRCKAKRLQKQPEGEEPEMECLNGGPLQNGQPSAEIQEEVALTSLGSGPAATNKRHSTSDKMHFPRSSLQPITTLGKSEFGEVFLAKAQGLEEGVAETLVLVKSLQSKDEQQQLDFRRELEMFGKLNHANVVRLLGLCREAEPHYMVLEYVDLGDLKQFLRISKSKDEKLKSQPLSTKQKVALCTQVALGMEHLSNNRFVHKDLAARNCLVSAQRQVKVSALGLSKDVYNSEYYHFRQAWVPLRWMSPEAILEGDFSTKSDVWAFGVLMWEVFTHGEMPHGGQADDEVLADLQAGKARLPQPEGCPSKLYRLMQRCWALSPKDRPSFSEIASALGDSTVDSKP

B1: Cofetuzumab-Pelidotin (protein, INN chains, looked up)
VH: QVQLVQSGPEVKKPGASVKVSCKASGYTFTDYAVHWVRQAPGKRLEWIGVISTYNDYTYNNQDFKGRVTMTRDTSASTAYMELSRLRSEDTAVYYCARGNSYFYALDYWGQGTSVTVSS
VL: EIVLTQSPATLSLSPGERATLSCRASESVDSYGKSFMHWYQQKPGQAPRLLIYRASNLESGIPARFSGSGSGTDFTLTISSLEPEDFAVYYCQQSNEDPWTFGGGTKLEIK
modifications: pelidotin auristatin payload
Cytotoxicity IC50, OV90-PTK-7 cells (CellTiter-Glo, 5 days): 0.0331 pM | Cytotoxicity IC50, OVCAR-3 cells (CellTiter-Glo, 7 days): 2.53 nM
